The values below come from publication PMC11181998.

Assay [1] concerns the target ACE2 receptor (UniProt Q9BYF1). The assay is described as follows: ELISA; competitive ELISA of ACE2 binding; DCFHP at 50 mcg/mL in 20 mM Tris, 150 mM NaCl, 5% Sucrose, pH 7.5, in solution or adsorbed to 1.5 mg/mL Alhydrogel (AH); time zero or freshly adsorbed; read against a DCFHP reference sample; who was immobilised is told only in the Supplemental methods. On the technique in general: ELISA stands for enzyme-linked immunosorbent assay.
Sequence of UniProt Q9BYF1 (Q9BYF1 18-740 limits assumed): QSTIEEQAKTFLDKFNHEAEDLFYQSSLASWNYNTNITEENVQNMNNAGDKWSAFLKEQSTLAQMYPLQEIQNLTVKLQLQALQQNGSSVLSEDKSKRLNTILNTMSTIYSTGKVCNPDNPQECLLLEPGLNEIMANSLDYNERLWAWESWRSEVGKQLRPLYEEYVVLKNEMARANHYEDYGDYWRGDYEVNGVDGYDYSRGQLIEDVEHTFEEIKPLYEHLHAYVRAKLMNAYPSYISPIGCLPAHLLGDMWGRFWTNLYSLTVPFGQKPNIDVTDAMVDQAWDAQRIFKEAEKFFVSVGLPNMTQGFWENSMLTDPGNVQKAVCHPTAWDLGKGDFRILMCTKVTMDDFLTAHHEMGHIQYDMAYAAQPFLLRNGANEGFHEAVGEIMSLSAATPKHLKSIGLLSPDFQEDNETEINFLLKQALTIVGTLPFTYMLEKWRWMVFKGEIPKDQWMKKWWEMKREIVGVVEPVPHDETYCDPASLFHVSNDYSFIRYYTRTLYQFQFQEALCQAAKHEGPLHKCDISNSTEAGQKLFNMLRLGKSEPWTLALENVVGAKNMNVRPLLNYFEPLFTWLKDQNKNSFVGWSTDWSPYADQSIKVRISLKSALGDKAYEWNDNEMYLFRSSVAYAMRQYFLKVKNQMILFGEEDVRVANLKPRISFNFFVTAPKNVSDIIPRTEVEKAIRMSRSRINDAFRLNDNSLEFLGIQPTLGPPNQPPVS

For assay [2], the target named is ACE2 receptor (UniProt Q9BYF1). Briefly: ELISA; competitive ELISA of ACE2 binding; AH-adsorbed DCFHP incubated overnight at 50 °C, against a reference freshly adsorbed to AH.
Assay [3] concerns the target ACE2 receptor (UniProt Q9BYF1). The assay is described as follows: ELISA; competitive ELISA of ACE2 binding; DCFHP samples (in solution, or with AH and 0, 20 or 200 mM sodium phosphate) stored at 4 °C (3-21 days, 1 month, or up to 4 weeks) before the assay.
In assay [4] the target is ACE2 receptor (UniProt Q9BYF1). The assay is described as follows: ELISA; competitive ELISA of ACE2 binding; AH-adsorbed DCFHP incubated overnight at 40 °C, against a reference freshly adsorbed to AH.

In the case of “Delta-C70-Ferritin-HexaPro (DCFHP), SARS-CoV-2 spike ferritin nanoparticle vaccine antigen, produced in Expi293 cells”, the native antigen concentration by ACE2 competitive ELISA (target 50 mcg/mL), freshly adsorbed to AH, time zero in the assay with ACE2 receptor [1] amounted to 48 µg/mL. The loss of ACE2 binding after overnight at 50 °C with ACE2 receptor [2] was 80%. In the assay with ACE2 receptor [3], the native antigen by ACE2 competitive ELISA after 1 month at 4 °C, AH with 0 mM phosphate stood at 80 µg; the native antigen by ACE2 competitive ELISA after 1 month at 4 °C, AH with 200 mM phosphate worked out at 50 µg; the native antigen concentration by ACE2 competitive ELISA (target 50 mcg/mL), AH-adsorbed, stored at 4 °C for 3-21 days came out at 75 µg/mL. Also, the loss of ACE2 binding after overnight at 40 °C with ACE2 receptor [4] stood at 60%.
